We go through 2 substances from article PMC5095700.

The Km is the substrate concentration at which the rate is half of its maximum. One may read the kcat as the number of substrate molecules converted per active site and unit of time at saturation.

In the data set the test system is N[C@@H]1[C@@H](O)[C@H](O)[C@@H](CO)O[C@H]1O. The experiment in a line: steady-state kinetics of purified variant. The format is biochemical, Clostridium acetobutylicum. The conditions noted are these: acetyl CoA.

On to “Glucosamine/glucosaminide N-acetyltransferase (GlmA) (Clostridium acetobutylicum ATCC 824; D287N)”, for which the Km is recorded as 11.8 ± 0.5 mM and the kcat stood at 1.05 ± 0.03 s⁻¹.
Taken in the same sequence, the figures for “Glucosamine/glucosaminide N-acetyltransferase (GlmA) (Clostridium acetobutylicum ATCC 824; Y297F)” were 7.1 ± 0.5 mM and 1.3 ± 0.06 s⁻¹.
